According to paper PMC5388414 (Nucleic Acids Research, 2016):
Where two headings read alike, the source gives them in different places.

Experiments:
Prp43 [1] = molecular target: Prp43 (Saccharomyces cerevisiae, UniProt P53131, F357A); assay: ITC; type: binding
Prp43 [2] = molecular target: T1, Prp43 (Saccharomyces cerevisiae, UniProt P53131); assay: ITC; type: binding
Prp43 [3] = molecular target: T1, Prp43; assay: ITC; type: binding; remark: listed apart in the source
Prp43 [4] = molecular target: T2, Prp43 (UniProt P53131 1-767); assay: filter binding
Prp43 R159A [5] = molecular target: T3, Prp43 R159A (UniProt P53131 1-767, R159A); assay: filter binding
Prp43 F357A [6] = molecular target: T4, Prp43 F357A (UniProt P53131 1-767, F357A); assay: filter binding
Prp43 R159A [7] = molecular target: T3, Prp43 R159A; assay: filter binding; remark: listed apart in the source
Prp43 F357A [8] = molecular target: T4, Prp43 F357A; assay: filter binding; remark: listed apart in the source
Prp43 R159A [9] = molecular target: T3, Prp43 R159A; assay: filter binding; remark: listed apart in the source
Prp43 [10] = molecular target: T2, Prp43; assay: filter binding; remark: listed apart in the source
Prp43 R159A [11] = molecular target: T3, Prp43 R159A; assay: filter binding; remark: listed apart in the source
Prp43 F357A [12] = molecular target: T4, Prp43 F357A; assay: filter binding; remark: listed apart in the source

Nc1ncnc2c1ncn2[C@@H]1O[C@H](COP(=O)(O)OP(=O)(O)O)[C@@H](O)[C@H]1O [ADP]
Kd (Prp43 [1]): > 45000 nM
Kd (Prp43 [2]): 1450 nM

Nc1ccn([C@@H]2O[C@H](COP(=O)(O)OP(=O)(O)O)[C@@H](O)[C@H]2O)c(=O)n1 [CDP]
Kd (Prp43 [3]): > 25000 nM

B1: 21-mer ssRNA (ssRNA)
RNA: GACGGGCUGUUGGUGAUGGAC
Kd (Prp43 [4]): 8 ± 3 nM
Kd (Prp43 R159A [5]): 3 ± 0.8 nM
Kd (Prp43 F357A [6]): 6 ± 1 nM
Kd (Prp43 R159A [7]): 8 ± 1 nM
Kd (Prp43 F357A [8]): 43 ± 3 nM
Kd (Prp43 R159A [9]): 18 ± 2 nM
Kd (Prp43 [10]): 42 ± 17 nM
Kd (Prp43 R159A [11]): 20 ± 4 nM
Kd (Prp43 F357A [12]): 14 ± 1 nM
